Assay results taken from the nanobody polyreactivity screen of Harvey et al. (2022).

Experiment: yeast display, Sf9 membrane polyspecificity reagent, FACS + sequencing; frameworks hold sequencing errors
How it was run: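 Using colony PCR, genes from sorted yeast display clones were amplified, then sequenced on MiSeq at 2 × 250 and filtered by CDR length. The clones had been stained with 10% biotinylated, detergent-solubilized Sf9 membrane reagent for 1 hour at 4 °C and sorted by FACS into low and high (top ~1%) gates on anti-HA and streptavidin fluorescence. Polyreactivity labels come from the gate of origin.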

Sequence: QVQLVESGGGLVQAGGSLRLSCAASGLIFFFYAMGWYRQAPGKERELVASISGGGITYYADSVKGRFTISRDNAKNTVYLQMNSLKPEDTAVYYCAARVLDWRGDIHDSEYWGQGTQVTVSS
- polyreactivity (PSR sort gate): low polyreactivity

Sequence: QVQLVESGGGLVQAGGSLRLSCASSGRIIRRNAMGWYRQAPGKERELVASISQGGSTYYADSVKGRFTISRDNAKNTVYLQMNSLKPEDTAVYYCAATLSYYVGVRYDYWGQGTQVTVSS
- polyreactivity (PSR sort gate): high polyreactivity

Sequence: QVQLVESGGGLVQAGGSLRLSCAASGSIFFIYDMGWYRQAPGKERELVADITSGGGSTFYADSVKGRFTISRDNAKNTVYLQMNRLKPEVSAVYYCATDDHDQPGGQLYITEVNYWGQGTQVTVSS
- polyreactivity (PSR sort gate): low polyreactivity

Sequence: QVQLLESGGGLVQAGGSLRVSCAASGFTFSRNVMGWYRQAPGKERELVAAITSGSTYYADSVKGRFTISRDNAKNTVYLQMNRLKPEDTAVYYCAKRGRLRNYDYWGQGTQVTVSS
- polyreactivity (PSR sort gate): high polyreactivity

Sequence: QVQLVESGGGLVQAGGSLRLSCAASGRIFASNAMGWYRQAPGKERELVAAIDQGGGSSYYADSVKGRFTISRDNAKNTVYLLMNSLKPEDTAVYYCAADYITAYPRLYNYWGQGTQVTVSS
- polyreactivity (PSR sort gate): low polyreactivity

Sequence: QVQLVESGGGLVQAGGSLRLSCAASGSTFGYYAMGWYRQAPGKERELVAAITSSGGSTYYSDSVKGRFTISRDNAKNTVYLQMYSMNPEDTAVYDCNTRWCFYIDPFYYEYDYWGQGSQVTVSS
- polyreactivity (PSR sort gate): low polyreactivity

Sequence: QVQHVESGGGLVQAGGSLRLSCAASGRIFHYNAMGWYRQAPGKERELVAAITWIGGSTYADSVKGRFTISRDNAKNTVYLQMNSLKPEDTAVYYCNARYIYRFDYWGQGTQVTVSS
- polyreactivity (PSR sort gate): low polyreactivity

Sequence: QVQLVESGGGLVQAGGSLRLSCAASGRNFRVYAMGWYRQAPGKESELVAAITSGGTTYADSVKGRFTISRDNAKNTGYLQMNSLQPEDTAVYYCAARYYIHRGYDYDYWGQGTQVTVSS
- polyreactivity (PSR sort gate): high polyreactivity

Sequence: QVQLVESGGGLVQAGGSLRLSCAASGITFDHYVMGWYRQAPGKERELVAAISRRGGSTYYADSVKGRFTISRDNAKNTVYLQMNSLKPEDTAVYYCAADSSKHIGYDSWGQGTQVTVSS
- polyreactivity (PSR sort gate): high polyreactivity

Sequence: QVQLVESGGGLVQAGGSLRLSCAASGIIFAYYAMGWYRQGPGKERELVASITNTGSTYYADSVKGRFTISRDNSKNTVYLQMNSLKPEDTAVYYCNAVLSSNTKWRYPGDYWGQGTQVTVSS
- polyreactivity (PSR sort gate): low polyreactivity

Sequence: QVQLVESGGGLVQAGGSLRLSCAASGRIIYRYAMGWYRQAPGKERELVAAIRYSGGRTYYADSVKGRFTISRDNAKNTVYLQMNSLKPEDTAVYYCAADGQWYYARFRGGDYENDYWGQGTQVTVSS
- polyreactivity (PSR sort gate): low polyreactivity

Sequence: QVHLVESGGGLVQAGGSLRLSCAASGLTLNSYVMGWYRQAPGKERELVARITSGGRTNYADSVKGRFTISRDNAKNTVYLQMNSVKPEDTAVYYCAVRSLSYARGGRSDFKVGYWGQGTQVTVSS
- polyreactivity (PSR sort gate): low polyreactivity

Sequence: QVQLVESGGGLVQAGGSLRLSCAASGSIFPAYAMGWYRQAPGKERELVAAITDRGGYTYYADSVKGRFTISRDNAKNTVYLQMNSLKPEDT
- polyreactivity (PSR sort gate): low polyreactivity

Sequence: QVQLVESGGGLVQAGGSLRLSCAASGFTFYQNAMGWYRQAPGKEREFVAAISRRGGSTYYADSVKGRFTISRDNAKNTVYLQMNSLKPEDTAVYYCAADYKRKSDGDYWGQGTQVTVSS
- polyreactivity (PSR sort gate): high polyreactivity

Sequence: QVQLVESGGGLVQAGGSLRLSCAASGRTFEWYALGWYRQAPGKERELVAAIRSGGGTNYADSVKGRFTISPDNAKNTVYLQMNSLKPEDTAVYYCAKEWAGGLYDYWGQGTQVTVTS
- polyreactivity (PSR sort gate): low polyreactivity

Sequence: QVQLVESGGGLVQAGGSLRLSCAASGSTFVYNAMGRYRQAPVKERELVAAISSGGSTYYADSVKGRFTISRDNAKNTVYLQMNSLKPEATAVYYCNARGSWRRDKYGTYYRYDYWGQGTQVTVSS
- polyreactivity (PSR sort gate): high polyreactivity

Sequence: QVQHVESGGGLVQAAGSLRLICYASGSIFGSYAMGWYRPAPGKERELVAAISSRGSRTYYADSVKGRFTISRDNAKNTVYLQMNSLKPEDTAVYYSNAGALTNYDYWGQGTQVTVSS
- polyreactivity (PSR sort gate): high polyreactivity

Sequence: QVHLVESGGGLVQAGGSLRVSCAASGSIFLDNAMGWYRQAPGKERELVADISYSGGSTYYADSVKGRFTISRDNAKNTVYLQMISLKPEDTAVYYCAAGVQLTVPPLRSSVTEYDYWGQGSQVTVSS
- polyreactivity (PSR sort gate): low polyreactivity

Sequence: QVQLVESGGGLVQAGGSLRLSCAASGRIFDRNAMGWYRPAPGKERELVAAISRRGGSTYYADSVKGRITISRDNAKNTVYLQMNSLKPEDTAVYYCAARFLYRSVKMDYWGQGTQVTVSS
- polyreactivity (PSR sort gate): high polyreactivity

Sequence: QVQLVESGGGLVQAGGSLRLSCAASGSTFEIYAMGWYRQAPGKERELVAAITRSGRTNYADSVKGRFTISRDNAKNTVYLQMNSLKPEDTAVYYCAAGVWGRDRKYGYWGQGTQVTVSS
- polyreactivity (PSR sort gate): high polyreactivity

Sequence: QVQLVESGGGLVQAGGSLRLSCAASGFIFFYYAMGWYRQAPGKERELVAAITRGGSTNYADSVKGRFTISRDNAKNTVYLQMNRLKPEDTAVYYCNKQYGRRHYWGDDYYWGQGTQVTVSS
- polyreactivity (PSR sort gate): low polyreactivity

Sequence: QVQLVESGGGLVQAGGSLRLSCAASGLTIQLYAMGWYRQAPGKERELVAAISGSGGRTYYADSVKGRFTISRDNAKNTVYLQMNSLKPEDTAVYYCAARPGSGRSYTSDYWGQGTEVTVSS
- polyreactivity (PSR sort gate): high polyreactivity

Sequence: QVQHVESGGGLVQAGGSLRLSCAASGRIFSTNPMGWSRQAPGKERELVAAITTSGGITYYADSVKGRFTISRDNAKNTVYLQMNSLKPEDTGVYYCNTGYYGRLRDDYWGQGTQVTVSS
- polyreactivity (PSR sort gate): high polyreactivity

Sequence: QVQLVESGGGLVQAGGSLRLSCAASGRTFTPNVMGWYRQAPGKERELVAAITQSGGRTYYADSVKGRFTISRDNAKNTVYLQMNSLKPEDTAVYYCNAERAGTYRYDYWGQGTQVTVSS
- polyreactivity (PSR sort gate): high polyreactivity

Sequence: QVQLEESGGGLVQAGGSLRLSCAASGSIFYSYAMGWYRQAPGNERELVAAITRGGSTYYADSVKGRFTISRDNAKNTVYLQMNSLKPEDTAVYYCAADSQYGWPEYEYDYWGQGTQVTVSS
- polyreactivity (PSR sort gate): low polyreactivity

Sequence: QVQLVESGGGLVQAGGSLRLSCAASGLTFIAYAMGWYRQAPGKERELVAAITWIGDSTYYADSVKGRFTISRDNAKNTVYLQMNSLKPEDTAVYYCATDWYGQYNGIYDYWGQGTQVTVSS
- polyreactivity (PSR sort gate): low polyreactivity

Sequence: HVQLVESGGGLVQAGGSLRLSCAASGSTFTVNAMGWYRQAPGKERELVAAISASGGRTYYADSVKGRFTISRDNAKNTVYLQMNSLKPEDTAVYYCAARFRTWGNREAGYYWGQGTQVTVSS
- polyreactivity (PSR sort gate): high polyreactivity

Sequence: QLQLVESGGRLVQAGGSLRLSCAASGRTFGRYAMGWYIQAPGKEREFVSSISRSTGRTSYADSVKGRFTISRANAKNTVYLQMNSLKPEDTAVYYCAVRWYYYRDDTIYVLGRYDYWGQGTQVTVSS
- polyreactivity (PSR sort gate): high polyreactivity

Sequence: QVQLVESGGGLVQAGGSLRLSCAASGRTFKLNAMGWYRQAPGKERELVAGITRTGDSTYYADSVKGRFTISRDNAKNTVYLQMNSLKPEDTAVYYCAKDGPWKFIYDYWGQGTQVTVSS
- polyreactivity (PSR sort gate): low polyreactivity

Sequence: QVKLVESGGGLVQAGGSLRLSCAASGSTFVGYAMGWYRQAHGKERELVAAINDSGGSTYYADSVKGRFTISRDNAKNTVYLQMNSLKPEDTAVYYCAADSSGTSWYTFDYWGQGTQVTVSS
- polyreactivity (PSR sort gate): low polyreactivity

Sequence: QVQLVESGGGLVQAGGSLRLSCAASGSTFRSYAMGWYRQSPGNERELVAAISYSGDSTYYADSVKGRFTISSDNAKNTVYLQMNSLKPEDTAVYYCAALRDWDIQCEPWKRYGYWGQGTQVTVSS
- polyreactivity (PSR sort gate): low polyreactivity

Sequence: QVQLVESGGGLVQAGGSLRLSCAASGSIFPPYVMGWYRQAPGKERELVASITTSGGSTYYADSVKGRFTISRDNAKNTVYLQMNSLKPEDTAVYYCAARWYYGGKSAGPGGGYWGQGTQVTVSS
- polyreactivity (PSR sort gate): low polyreactivity

Sequence: QVQLVESGGGLDQSGGSLRISCAASGSTFYRNAMGWYRQAPGKEREFVAAITTDDSTYYADSVKGRFTISRDNAKNTVYLQMNSLKPEDTAVYYCAAGLEGKATWAAVGGYDYWGQGTQVTVSS
- polyreactivity (PSR sort gate): low polyreactivity

Sequence: QVQLVESGGGLVQAGGSLRLSCAASGSIFRRNTMGWYRQAPGKERELVAAITFTGGRTYYADSVKGRFTISRDYAKNTVYLQMNSLKPEDTAVYYCNRVTAYYPTKFDYWGQGTQVNVSS
- polyreactivity (PSR sort gate): high polyreactivity

Sequence: QVQLVESVGGLVQAGGSLRLSCAATGSIFSYYAMGWYRQAPGKERELVAAISVSGGRTYYADSVNGRFTISRDNAKNTVYLQMNSLKPEDTAVYYCATRIRSYYYWGQGTQVTVSS
- polyreactivity (PSR sort gate): high polyreactivity

Sequence: QVQLVESGGGLVQAGGSLRLSCAASGSTLAFYAMGWYRQAPGKERELVAAIRRGGSTYYADSVKGRFTISRDNAKNTVYLQMNSLKPEDTAVYYCAARYRRVSYYYWGQGTQVTVSS
- polyreactivity (PSR sort gate): high polyreactivity

Sequence: QGQLVESGGGLLQAGGSLSLSCAATGFTFTENAMGWYRQEPGKEREFVAYISSSGDSTYYSDSVKGRFTISRDNAKNTVYLQMNSLKPEDTAVYYCYRDLVYDYYYVPQPSRFDYWGQGTQVTLSS
- polyreactivity (PSR sort gate): high polyreactivity

Sequence: QVQLVESGGCLVQAGGSLRLSCAASGRTFYTNGMGWYRQAPGKEREFVAGITYRGGGTYYADSVKGRFTISRDNAQNTVYLQMNSLKPEDTAVYYCAARYYRDYRWYTYAYDYWGQGTQVTVSS
- polyreactivity (PSR sort gate): high polyreactivity

Sequence: QVQLVETGGGLVQAGGSLRLSCAASGFTFFYYDMGWYRQAPGKERELVADITTGGSTNYADSVKGRFTISRDNAKNTVYFQMNSLKTEDTAVYYCAAATTYPYGYYYWGQGTEVTVSS
- polyreactivity (PSR sort gate): high polyreactivity

Sequence: QVQLVESGGGLVQAGGSLRLSCAASGRTFRLYAMGWSRQAPGKERELVAAITRGGRTNYADSVKGRFTISRDNAKTTVYLQMTSLKPEDTAVYYCAARYVERHTDYYYWGQGTQVTVSS
- polyreactivity (PSR sort gate): low polyreactivity

Sequence: QVQLVESGGGLVQAGGSLRLSCAASGRIFGFYAMGWYRQAPGKERELVARISSRGGSTYYADSVKGRFTISRDNAKNTVYLQMNSLKPEDTAVYYCAAYVWYHQYHYVPMDYWGQGTQVTVSS
- polyreactivity (PSR sort gate): high polyreactivity

Sequence: QVQLEESGGGLVQAGVSLRLSCAASGIIFHFNDMVWYRQAPGKERELLAAIDSTGSTNYADSVKGRFTISRDNAKNTVYLQMNSLKPEDTAVYYCAVLNHRVDSVLTRYYYWGQGTQVTVSS
- polyreactivity (PSR sort gate): low polyreactivity

Sequence: QVQIVESGGGLVQAGGSVRLSCAASGRTFYYNAMGWYRQAPGKERELVASISSSDSDTYYADSVKGRFTISRDNAKNTVYLQMNSLKPEDTAVYYCAAEYYWDLTFTRYDYWGQGTQVTVSS
- polyreactivity (PSR sort gate): low polyreactivity
